*1 amine or outer side, *2 acyl side, *3 side chain or, on linkers, in order; H or OH if unused. Bridges are numbered along the chain shown (N, C = ends). Where no end group is shown, it is not given here. [ ]: non-standard residue; d: D form. TATA = O=C(CC[*:1])N1CN(C(=O)CC[*:2])CN(C(=O)CC[*:3])C1; Trp(1-Me) = Cn1cc(C[C@H](N)C(=O)O)c2ccccc21; Arg(Me2a) = CN(C)C(=N)NCCC[C@H](N)C(=O)O; Lys(Me3) = C[N+](C)(C)CCCC[C@H](N)C(=O)O; Phe(4-F) = N[C@@H](Cc1ccc(F)cc1)C(=O)O; 1Nal = N[C@@H](Cc1cccc2ccccc12)C(=O)O; Ala(cPent) = N[C@@H](CC1CCCC1)C(=O)O; Ala(cPr) = N[C@@H](CC1CC1)C(=O)O; tBuAla = CC(C)(C)C[C@H](N)C(=O)O; NMeA = CN[C@@H](C)C(=O)O
B1: Example 22 (peptide)
peptide: CQWLEDCWRGXC
modifications: not fully specified; N-term acetyl; CQWLEDCWRG[3,4diFPhe]C as printed; 3 Cys on TATA
B2: Example 26 (peptide)
peptide: CQWLEDCWRGXC
modifications: not fully specified; N-term acetyl; CQWLEDCWRG[4-BrPhe]C as printed; 3 Cys on TATA
B3: Example 27 (peptide)
peptide: CQXLEDCWRGXC
modifications: not fully specified; N-term acetyl; CQ[Nal1]LEDCWRG[4-FPhe]C as printed; 3 Cys on TATA
B4: Example 37 (peptide)
peptide: CQWLEDCWRGXC
modifications: not fully specified; N-term acetyl; CQWLEDCWRG[3,4,5triFPhe]C as printed; 3 Cys on TATA
B5: Example 38 (peptide)
peptide: CQXLEDCWXGXC
modifications: not fully specified; N-term acetyl; CQ[Nal1]LEDCW[ADMA]G[4-FPhe]C as printed; 3 Cys on TATA
B6: Example 41 (peptide)
peptide: CQWLEDCWRGXC
modifications: not fully specified; N-term acetyl; CQWLEDCWRG[3-F,4-ClPhe]C as printed; 3 Cys on TATA
B7: Example 74 (peptide)
peptide: CQWLEDCWRGXC
modifications: not fully specified; N-term acetyl; CQWLEDCWRG[3-MePhe]C as printed; 3 Cys on TATA
B8: Example 80 (peptide)
peptide: Ac-CQW[Ala(cPr)]EDCWRGFC
modifications: linker 1-7-12 via TATA; not fully specified (C-terminus); printed as CQW[CproA]EDCWRGFC
B9: Example 44 (peptide)
peptide: Ac-CQW[tBuAla]EDCWRGFC
modifications: linker 1-7-12 via TATA; not fully specified (C-terminus); printed as Ac-CQW[tBuA]EDCWRGFC

Each binder was assayed against T1, Biotinylated human TSLP (human, biotinylated) (assay: SPR, biotinylated hTSLP on streptavidin chip).
T1 construct: also called hTSLP; thymic stromal lymphopoietin
T1 sequence (chain, as listed by the source limits assumed): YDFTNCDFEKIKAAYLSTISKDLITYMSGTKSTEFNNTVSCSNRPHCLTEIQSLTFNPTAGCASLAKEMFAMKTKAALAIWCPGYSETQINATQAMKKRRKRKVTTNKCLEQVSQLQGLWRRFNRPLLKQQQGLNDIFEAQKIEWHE

| Binder | Kd [nM] |
| --- | --- |
| B1 | 9.7 |
| B2 | 11 |
| B3 | 12 |
| B4 | 19 |
| B5 | 20 |
| CAXLEDCWXGXC (N-term acetyl; CA[Nal1]LEDCW[Harg]G[4-FPhe]C as printed; 3 Cys on TATA) [Example 62] | 63 |
| B6 | 24 |
| Ac-ACQWLEDCWRGFCPLD (linker 2-8-13 via TATA; not fully specified (C-terminus)) | 43 |
| Ac-CQWLEDCWRGFCAPDERD (linker 1-7-12 via TATA) [Example 54] | 46 |
| ACQWLEDCWRGFCDDAHAP (linker 2-8-13 via TATA) [Example 55] | 47 |
| CQWLEDCXRGXC (N-term acetyl; CQWLEDC[4-ClNal]RG[4-FPhe]C as printed; 3 Cys on TATA) [Example 60] | 62 |
| SDEQRTCQWLEDCWRGFCA (linker 7-13-18 via TATA) [Example 61] | 62 |
| ACTWLEDCWRGFCADS (linker 2-8-13 via TATA) [Example 63, listing 1 of 2 here] | 65 |
| Ac-CQW[Ala(cPent)]EDCWRGFC (linker 1-7-12 via TATA) [Example 65] | 70 |
| ETNNLECQWLEDCWRGFCA (linker 7-13-18 via TATA) [Example 71] | 82 |
| SPPCVWLDDCWRGFCA (linker 4-10-15 via TATA) [Example 73, listing 1 of 2 here] | 85 |
| B7 | 91 |
| ACHWLEDCWRGFCHLE (linker 2-8-13 via TATA; not fully specified (C-terminus)) [Example 75, listing 1 of 2 here] | 92 |
| ACTWLDDCWRGFCA (linker 2-8-13 via TATA) | 93 |
| CQWLEDCWRGXC (N-term acetyl; CQWLEDCWRG[4-CF3Phe]C as printed; 3 Cys on TATA) [Example 77] | 93 |
| B8 | 100 |
| Ac-CQWLEDCW[Lys(Me3)]GFC (linker 1-7-12 via TATA; not fully specified (C-terminus)) [Example 81] | 100 |

These binders were tested against TSLP (as used in the human PBMC assay) (UniProt Q969D9 29-159) (assay: cell-based or functional assay).

| Binder | CCL17 % Inhibition @ 10 µM, 50 pM TSLP [%] | CCL17 % Inhibition @ 10 µM, 666 pM TSLP [%] | CCL17 % Inhibition @ 10 µM, 400 pM TSLP [%] |
| --- | --- | --- | --- |
| CQWXEDCWRGXC (not fully specified; Ac-CQW[tBuA]EDCWRG[4-FPhe]C; 3 Cys cyclised with TATA) [Example 4] | 47 |  |  |
| CQWLEDCWRGXC (not fully specified; Ac-CQWLEDCWRG[4-FPhe]C; 3 Cys cyclised with TATA) [Example 17] | 1 |  |  |
| Ac-C[NMeA][Trp(1-Me)][tBuAla]QDC[Trp(1-Me)][Arg(Me2a)]G[Phe(4-F)]C (linker 1-7-12 via TATA) [Example 18] | 89 |  |  |
| CQWLEDCWRGXC (not fully specified; Ac-CQWLEDCWRG[3,4diFPhe]C; 3 Cys cyclised with TATA) | 41 |  |  |
| Ac-C[NMeA][1Nal][tBuAla]QDC[Trp(1-Me)][Arg(Me2a)]G[Phe(4-F)]C (linker 1-7-12 via TATA; not fully specified (C-terminus)) [Example 25] | 71 |  |  |
| CQXLEDCWRGXC (not fully specified; Ac-CQ[Nal1]LEDCWRG[4-FPhe]C; 3 Cys cyclised with TATA) |  | 33 |  |
| Ac-C[NMeA][1Nal][tBuAla]QDC[Trp(1-Me)][Arg(Me2a)]G[Phe(4-F)]C[dA] (linker 1-7-12 via TATA; not fully specified (C-terminus)) [Example 29] | 61 |  | 62 |
| CQWLEDCWRGXC (not fully specified; Ac-CQWLEDCWRG[3-ClPhe]C; 3 Cys cyclised with TATA) [Example 32] |  | 14 |  |
| ACQWLEDCWRGFCADGDML (linker 2-8-13 via TATA) [Example 42] | < 20 | 47 |  |
| CQWLEDCWRGXC (not fully specified; Ac-CQWLEDCWRG[4F3ClPhe]C; 3 Cys cyclised with TATA) [Example 8] | 71 |  |  |
| B9 |  | 52 |  |
| GTDSAECQWLEDCWRGFCA (linker 7-13-18 via TATA) [Example 45] |  | 0 |  |
| CQWLEDCWRGXC (not fully specified; Ac-CQWLEDCWRG[Nal1]C; 3 Cys cyclised with TATA) [Example 47] |  | -7 |  |
| CQWLEDCWRGXC (not fully specified; Ac-CQWLEDCWRG[Nal2]C; 3 Cys cyclised with TATA) [Example 50] |  | 33 |  |
| Ac-ACQWLEDCWRGFCPLD (linker 2-8-13 via TATA) |  | -2 |  |
| TMEYRDCQWLEDCWRGFCA (linker 7-13-18 via TATA) [Example 56] |  | 40 |  |

| Binder | CCL17 % Inhibition @ 10 µM, 50 pM TSLP [%] | CCL17 % Inhibition @ 10 µM, 666 pM TSLP [%] | CCL17 % Inhibition @ 10 µM, 400 pM TSLP [%] |
| --- | --- | --- | --- |
| ACQWLEDCWRGFCSSSDQS (linker 2-8-13 via TATA) [Example 59] |  | 2 |  |
| ACTWLEDCWRGFCADS (linker 2-8-13 via TATA) [Example 63, listing 2 of 2 here] |  | 24 |  |
| ACQWLEDCWRGFCA (linker 2-8-13 via TATA) [Example 68] |  | 33 |  |
| SPPCVWLDDCWRGFCA (linker 4-10-15 via TATA) [Example 73, listing 2 of 2 here] |  | -11 |  |
| CQWLEDCWRGXC (not fully specified; Ac-CQWLEDCWRG[3-MePhe]C; 3 Cys cyclised with TATA) |  | 43 |  |
| ACHWLEDCWRGFCHLE (linker 2-8-13 via TATA; not fully specified (C-terminus)) [Example 75, listing 2 of 2 here] |  | -2 |  |
| ACTWLDDCWRGFCA (linker 2-8-13 via TATA; not fully specified (C-terminus)) |  | 0 |  |
| Ac-CQWLEDCWRGFC (linker 1-7-12 via TATA) [Example 79] |  | -18 |  |
| ACRDLDPWTCSSWWLCA (linker 2-10-16 via TATA; not fully specified (C-terminus)) [Example 164] |  | 0 |  |
| AHPCADLDPWTCPNWWLCA (linker 4-12-18 via TATA; not fully specified (C-terminus)) [Example 165] |  | 33 |  |
| YATTQVCRDLDPWTCSSWWLCA (linker 7-15-21 via TATA) [Example 171] |  | 36 |  |
| ACRDLDPWTCSSWWLCANV (linker 2-10-16 via TATA) [Example 186] |  | -1 |  |
| RAPCPDLDPWTCSDWWLCA (linker 4-12-18 via TATA) [Example 187] |  | 11 |  |
| SHVCRDLDPWTCDSWWLCA (linker 4-12-18 via TATA) [Example 188] |  | -4 |  |
| ACRDLDPWTCSSWWLCADGLYDA (linker 2-10-16 via TATA) [Example 193] |  | 47 |  |
| ACDWHWEYDCWLSCA (linker 2-10-14 via TATA) [Example 199] |  | -3 |  |

— patent publication US20220363718A1 (Bicycle, published 2022)
